According to patent US20090137467A1:
Like-named read-outs stand apart in the source and are kept apart here.

Assays:
[1] = biological target: [Asn516]β-RNAP (Escherichia coli)
[2] = biological target: [Asn516]β-RNAP (Escherichia coli); remark: listed apart in the source
[3] = biological target: Escherichia coli RNA polymerase (Escherichia coli) (UniProt P0A8T7)

Substance: {rifamycin SV}-{CH2C(O)NH(CH2)6NHC(O)CH2S(CH2)3C(NH2+)}-{[Lys5]MccJ25} (from UniProt Q9X2V7) (peptide)
- inhibition of transcription (IC50) [1]: 130 µM

Substance: {rifamycin SV}-{CH2C(O)NH(CH2)8NHC(O)CH2S(CH2)3C(NH2+)}-{[Lys5]MccJ25} (from UniProt Q9X2V7) (peptide)
- inhibition of transcription (IC50) [1]: 100 µM

Substance: {rifamycin SV}-{CH2C(O)NH(CH2)10NHC(O)(CH2)2(C2N3)(CH2)4C(O)}-{[Lys5]microcin J25} (from UniProt Q9X2V7) (peptide)
- inhibition of transcription (IC50) [2]: 220 µM

Substance: {rifamycin SV}-{CH2C(O)NH(CH2)10NHC(O)CH2S(CH2)3C(NH2+)}-{[Lys5]MccJ25} (from UniProt Q9X2V7) (peptide)
- inhibition of transcription (IC50) [1]: 95 µM

Substance: {rifamycin SV}-{CH2C(O)NH(CH2)12NHC(O)CH2S(CH2)3C(NH2+)}-{[Lys5]microcin J25} (from UniProt Q9X2V7) (peptide)
- inhibition of transcription (IC50) [1]: 48 µM
- inhibition of RNAP (IC50) [3]: 0.002 µM
